The series can be described thus: label from the status in PepcDB records.

For 18 sequences, protein production results are on record in a protein production outcome set (Wang et al. 2014).

Turning to “MQTVGSFSEFLDDMVGRYGPRPAIQYRPRYRTLRWSYLELGTHAAKLASLLDEHGVGSGDRVFLSAENSPHWVAAFFAIAARGAVIVPLNPRSPPEQLANLVRSAGPSLVLASPRRRWEGPPLPVVDIERSGRVPSNRPATRTGPARLAEIIYTSGTTGDPKGVMLTHANLLSDLSAVARAIPLAPDDHVLSLVPLFHVYGQMTSLFCPLAAGCPVSYLTTPTTRSVLEALTHTPVTHLVAVPEVLKTMMDRLESRIGRIPGFLWPLLRGRIRARISGSLRTIVCGGAPLDPVVEEKWWALGFQVLQGYGLTETSPVIAANTPQAHRIGSVGKPLDEVELRIASDGEILVKGPMVMAGYFRDPARTEAAFADGWLKTGDAGRLDADGFLYVYGRKRYMILGPGGENVFPEDIEAVLNRTAGVTDCAVVGLESGGRTLVHAVLLADADEARAAAIVAEANRHLAPHQRIVSWSLWPEPDFPRSVTRKVKKDEVLGRLRREPSTQAVPVGRSTPLRLLLAQVAGTEAGALSDDTRLVPDLGLDSLLRIELVARIEEDLGVCLDEIDIGPLTTVADLENLLVRRQDRMPRVDAHPRWSLSPWASRLRPLAQKVFLQWWIAPFCRLRVSGLEHLAALDGPVIFMANHRSYLDSAVASFALPDRFRYRLAIAAATGVLYTRYRWAVPIGELSLNAFPLPSGPDENIRPGLELIGRLLDDGWNVLIFPEGQMNRGGLGIQPLRRGAGTIGVDMGVPVVPLVIEGTEKVMPPGRIVPRAAAPVSVRFGAPLRAGEAEPHGRMLARIEDALRRLLENSPLEHHHHHH”, the protein production entry is “failed”.

Take “MQVELIIKNLKVYNSYFKKFIKSDVLINEGKFLHIGKGYEDRLWSENIIDGEDKYIIPGLIDIHMHIESSMTIPREFSKAAIKHGVTTVVADPHEIANVFGVRGIEEFIKFKGNLDIFYGIPSSVPSTSSSLETTGEKITHNEVKRLLEYDNIICLGEVMNFKDLIEDDDSNINKIINISKEKNIPLEGHCPKIQGVDLSLYIYRGVNGDHTQQSVGSLQEKIQNGMFIEMQHKSMTLENIKFLIENNLYEHFALVTDDVMADKLVKGHLDEILKEAVKLGMSIENAIYASTYTPARRMNLLDRGTIAPGKLADFILLDSIEDFNIYEVYKNGEMVFNRDKGLKEEFFEDKSKLDYRFYNSIELNNITKESLEVKVPNKYKNKVNCRTMKVLKNTTFTEEGEVTLNVYNNILQWEKSSCALIAVFERYGKNNNISFGLVEGEIIKEGAIATTWAHDHHNLMVMGRNISDMTIAANEVINSRGGYVVSKNNEVIAKLELPIGGIISDEPIEIIGEKLGEVRNAMRDLGYNHMNEIMSFSTLSLPVSPALKITDKGLIDVKKGSIVSLFKKGLY”: the protein production entry is “failed”.

“MQVIAFIAPLIDKGMDPLTGVPIRQEVPRLMERTFQENQAETYVLFLINLDRFKLVNDSLGEGYGDQVLQTLVRRLLWQLPNQQWIARVSGDEFIACAAIKGELPKKETLATYISSIIQQPFQVDEVQFTMTASIGAAVYPMDGKSVEMIWNSLERALRHAKARGGNCVSWFCQELKDEWIHPFRLENDLRRAVENQELEHHHHHH”: the protein production result is “failed”. “MQVPGHAFNPVAAPYFPDHLAFLDGPMNARAQGLPRRLENIVLVADLAGTAVFAVEGAISAMRAQLDLLGVMVIAFIVALGGGVTRDLLIGATPPKAVADWRYPALALLMGGLAFVARDWVLGWSGPLLILLDAAGLGLFAVAGTQKAQNFGISPFVSMLMGTVTGVGGGVIRDIVLARIPLVLQVDLYASSAFVGAASLVIARRLGVPPLWSAWLAGTVCFALRMLSVRYGWQLPKAL”: the protein production result is “failed”. Turning to “MQVTLIQGLLIGLFALIAGIDFWLEGLYIFRPMIVCTVTGAILGNLTLGIIAGGLTELAFAGLTPVGGTQPPNPIMAGIMTVVLAYTTGKTPSTAIGLALPFSILMQYIILFYYSAFSVLTKKLDAYAANVETKKFTRLALLPTVLVALTYGVIAFLCVYGAQEPMKALVNSMPVWLSHGFEIAGNILPAVGFGLLLKSMLKAEYVPYLLLGFTAACFIKFGNLMPVAVIGISLAFIEFYHNKKQTDNEKKLKSMIESASGNGDDGDGI”, the protein production entry was “failed”. As for “MQYRIRRENEAPEAKNAGETLWERDMMREVLLSAYRDRRRERMWKNIWRAVSTLILVALIAGIFRKDEAALQLAGNTPHTAVVNLYGEIGNGVEDQVKKLKDGMEAAYKNPQAKAIVIRANSPGGSPVVSNTAFEEIRRLKAQHPGIPVYLVAEDMCASGCYYIAAAADKIYADPSSIVGSIGVIGSSFDATGLMEKIGVKRRVKIAGSNKGMGDPFSPETPEQSKIWEEMLTGIHGEFIKAVKTGRGGRLKFRQYPDVFSGRVYTGADALKVGLVDGLGNIYSVARDVVKAPDVVDYTPKDDFGRILGRRFGAELKASVREALQAVR”, the protein production entry is given as “failed”. For the sequence “MQYVMSIIGIIAVLGLCFALSNNKSKINFRAIAIMIGFQILIGWFMFATKIGQQIIIFISKVFNKLIKLGTTGVDFLFNGIHRDFVFFLNVLLIIVFFSALLSIFSYLGVLPFIVRVVGGAISKITGLPRVESFHAVNSVFFGSSEALIVIKNDLQHFNKNRMFIICCSAMSSVSASVTASYVMMLDAKYVLAALPLNLFSSLIVCSLLTPVDTKKEDEVIQKFDRTLFGDSFIGAMINGALDGLKVAGIVAALMIAFIGVMEVVNYVISAASGAMGHAVTLQQIFGYVLSPFAFLMGIPTQDIIPAGGIMGTKIVLNEFVAILDLKDTATTLAPRTVGIVTVFLISFASISQIGAIVGTIRALSEKQGSVVSKFGWKMLFASTLASILSATIAGLFI”, the protein production result is on record as “failed”. Take “MRAAGRDRAERRMPHTWSFDYFYSLPFWAALLAVAAVVRLAGGSPVLRGLALLATSNALLLAIPGFSAADLALVWAVSGVALASARTLSRSAPGSSRARRVVVVGSVVAILAFLALFKYRFLQGLLLGPFAQVLAPRASSGVVNPLVLVGVSYFSFKAIHVVVETYRGTLGRVEALAFLNYMTFFPAFISGPINRFGDFSEQLASASPALGADLRAGGERIVHGLFKKVVLVPLVMPYLLTNQARPLDQATLLDVATGLYAYALYFFFDFAGYTDLAIGGARIIGIRLPENFRQPFFQKNIRDLWTNWHMTLTSWLVDYVYWPTVRALRNLEYLRTRPVLLSVIGMNVTFVSCGIWHGEAPHFVLWGAYHGLGISVLNVYQRQKKRIRAPRIQRWFASRYSRWLGTFATFNFFAAGLALFVLDLGQIRALLRALVG”: the protein production entry is given as “failed”.

Take “MRAASVPFSQRTTCKGRDGFDQFQIAFASAAERDHSCDQGRRQPGGRPPIQVAAVSGFMHRQGKTPMPTLTINGRSLSVDAANDTPLLWAIREQLQMTGTKFGCGAGLCGACTVHVNGEAVRSCQTMVGDVAGKKITTIEGLSAKGDHPLQKAWIAEQVPQCGYCQSGQIMQAASLLAKNANPTKEEVVAHMDGNLCRCMTYSRIQKAIMRAATEMRTASASGNERRPT”: the protein production entry is “failed”. Consider “MRAEADPEFAAVAERIHANVGRQGFMNLVGAELSELSRGTCTIAVERRPELLQQHGFFHGGVTAFLVDNATTIAAATSRGQPALTAEYKLNLLSPAVGEKLICRARVIKPGRQVSVVAADVFCVSDGVEKHTATALASIAMLSEDVAAKTKSPAA”, for which the protein production result was “failed”.

Turning to “MRALLLIAALLAPTAALAQQQLPLWPNGAPGFESRKAIPEQAADYWVKSVNNPSITAYLPPKETATGAALIVLPGGGHRILVIHSEGSDVAKVMNPKGVAVFVVKYRLFREEGSPYTIDHARQDAVRAVRYVRAHAAVFGVDPKRIGLMGFSAGGEAVNLAVYQGAANDPKTDAVDAVSARPDFQVLVYPGPLGVPEKVPTDTPPAFIVAANDDECCSAPPVDLLTRFRAAKVPIEFHLFQSGGHAFNMGLRSHKAALKAWPDRLFDWLADNGWLKAG”, the protein production entry was “failed”. Regarding “MRAMRWILPLLLAIGVAAPARAASEWAVKDGSVQVKAHADEQGRAVVRASIEIAAPPSVVFGVILDCGRAARMSPGVKRCRVVSRAADGSEVREHTVKWGFFLPALQSRSRLSLQPDREIRFTCIGGDIRACDGFWRLEPLDGGMRTRVTYDLWATAPYAAPAGLVSSLMRRTVPQSLAALRRECEGG”, the protein production entry is “failed”.

“MRAPGALLARMSRLLLLLLLKVSASSALGVAPASRNETCLGESCAPTVIQRRGRDAWGPGNSARDVLRARAPREEQGAAFLAGPSWDLPAAPGRDPAAGRGAEASAAGPPGPPTRPPGPWRWKGARGQEPSETLGRGNPTALQLFLQISEEEEKGPRGAGISGRSQEQSVKTVPGASDLFYWPRRAGKLQGSHHKPLSKTANGLAGHEGWTIALPGRALAQNGSLGEGIHEPGGPRRGNSTNRRVRLKNPFYPLTQESYGAYAVMCLSVVIFGTGIIGNLAVMCIVCHNYYMRSISNSLLANLAFWDFLIIFFCLPLVIFHELTKKWLLEDFSCKIVPYIEVASLGVTTFTLCALCIDRFRAATNVQMYYEMIENCSSTTAKLAVIWVGALLLALPEVVLRQLSKEDLGFSGRAPAERCIIKISPDLPDTIYVLALTYDSARLWWYFGCYFCLPTLFTITCSLVTARKIRKAEKACTRGNKRQIQLESQMNCTVVALTILYGFCIIPENICNIVTAYMATGVSQQTMDLLNIISQFLLFFKSCVTPVLLFCLCKPFSRAFMECCCCCCEECIQKSSTVTSDDNDNEYTTELELSPFSTIRREMSTFASVGTHC”: the protein production entry is on record as “failed”. Consider “MRCMSDDHTHVQEFFEARAADWDSRFPDDGPAHAAAVAELGLREGDRVLDAGCGTGRALPSLRAAVGSSGVVVGVDLTPAMLAAAARAGRGRDGHLLLADVTRLPLGTESLDAVFAAGLIAHLPEPAENLRELARVVRAGGTLALFHPIGRAALAARQGRQITPDDLRAEANLGPLLAGSGWRMTSYVDEDARFLALAVRVKLEHHHHHH”, for which the protein production result is given as “failed”. With “MRDDVFGQSNSLTRADSAEAWDGVLLGFMAHAAVTPQHLARVLELEPDFALAHAIKGLFMLLLGRREMTPVAIEAMAAAERAAAARAITAREGHYLAALRHWLAGNPSRSVQEFEAILRAHPDDTLAMKLSHATRFVLGDPAGMRRSIERVMPAYAPDHAGRGYLLGCHAFALEETGAYDKAEIAGRQALWMVSDDAWGLHAVAHVHEMKGQSELGLDWLAGREAAWSHCNNFRYHVWWHKALMHLDQGQIDQVFDLYDSAIRKDKTDDYRDISNATSLLSRLELEGVNVGDRWEELADLSAARTEDGCLIFADLHYLLALTGDTREDAISRMLHRIKRDADMAQCDTTRRMADPGLAAAQGLEAFGEGQYGQAFDHLLTARGSMQLAGGSHAQRDVFERITIDAGLRAGRLDAVERVLDDRRAKRGGHEDTYALARRALIEAGRDDRNIHSVPAE”, the protein production entry is recorded as “failed”. As for “MRDFGEILAENRKKKGYSQSDLVNLLSQEGIQVTTKALSKWENNAREPALHVFLTLCQLLDIEDIYESFFGENPYNIMSGLNEEGRNKLIEFADILKASKKFSPLSAKIIPFHHPVEITWEPVSAGTGNYLEDSVKETYDVGHLAPEQTDFGVRISGDSMEPLYHTDDVAWIQKKDSLANGEIGIFYLNGNTYIKELHDEPDGVYLISLNQKYRPIQVLESDSFKIFGKVIGKCKGAEIPGFHLEHHHHHH”, the protein production entry is “not failed”. For “MRDLITNRFTSQRTLREGSVGLLFLLGLGAFGVILLWLNRYTAAGSSYKAVVEFANAGGMQRGATVRYRGVKVGRISQIQPGPNAVEVEIEFAQSNLIIPRDVVIEANQTGLISESIIDITPKSSLPTGQTLPKPLDKNCDNSLIICNNSRLKGQIGISVDALIRSSTDFANTYTNPEFYQRVNRLLETSAQAATSVAALTQDFRGLTKSFQGQLGTFASTANTVQRATNELTVSTTKTVNQFGITADKFGTTATQASRLLSDLNSLLNTNRSSLVSALNNITETSNQLRLTVTNLSPSLNRLTQGELIKNLEALSANAAQASANLRNATESLNDPKNAVLLQQTLDSARLTFENTQKITSDLDELTGDPNFRQNLRQLVNGLSGLVSSTDQIEQQAKLATTLESMKAAADKPNITIPSLATHPSSNAVTIANNQPQVSSQEKLLQQLRDYAEQGSGEDKKQGSREQREELMKTDY” the value was “failed”. In the case of “MRDYSELEIFEGNPLDKWNDIIFHASKKLSKKELERLLELLALLETFIEKEDLEEKFESFAKALRIDEELQQKIESRKTDIVIQSMANILSGNE” it was “not failed”.
